Experimental findings from patent US12252714B2, “Halogenation of complex organic compounds” (REGENTS OF THE UNIVERSITY OF MICHIGAN, priority 2018, dated 2025) are described below.

The data set is described as follows: MalA biochemical activity assays, mutants versus wild-type MalA. The method, then:
Biochemical activity assays were performed in a 100 μL volume with the following components: 18 μM MalA, 54 μM HpaC flavin reductase,^3 100 μM FAD, 50 mM NaCl, 250 μM substrate, 5 mM NADH, and brought to total volume with reaction buffer (same as storage bufferNaBr). The chlorination reactions proceeded for 20 minutes and the bromination reactions proceeded overnight. The reactions were extracted with ethyl acetate ([…], in triplicate) and dried down under nitrogen gas. The dried extract was resuspended in LC/MS grade methanol to a concentration of around 10 μM for LC/MS analysis. High resolution mass spectrometry was performed using electrospray ionization on an Agilent quadrupole time-of-flight spectrometer (Q-TOF 6500 series). Biochemical activity was monitored via the following HPLC method using acetonitrile and water: 65% acetonitrile for 5 minutes, gradient over 10 minutes to 95% acetonitrile, 95% acetonitrile for 5 minutes, gradient over 2 minutes to 65% acetonitrile, 65% acetonitrile for 11 minutes to re-equilibrate with a flow rate of 0.3 mL/minute, monitoring at 240 nm on a Phenomenex Lux cellulose-3, cellulose Tris (4-methylbenzoate) 250×4.6 mm column.

B1: MalA′: flavin-dependent halogenase from M. graminicola, generated by site-directed mutagenesis of malA: L276P/R428P (protein, UniProt L0E155 1-667, looked up, variant L276P R428P)
Flavin-dependent halogenase …: MAPTPKYTFTERAAAGNLSDAEILNSNNPTGSELPDESDVVVGGAGIHGLIYALHASKYKPNNLKISVIEKNTRPGYKIGESTLPIFYTWCKLHGISAAYLLRLFGLKDGLCFYFLDRENQGQYTDFCSVGAPGLVLASLQIERPMSELLFTILAQRNGVNVYHGREVDFKSTVVQGGGQGNKIAVSRGKYDSTPKTIDSALFVDATGRFRQFCSKKAPRHRFDGWNCNAFWGYFTAPKDESKIPFDLYEGDHTNHLCFPEGWVWVIRLPSWEGSPIANLMDMVTYILECADAGVPGDELPSSEELARMFGLKFQWVTSIGFAVRNDVKYPEDLSAYGTREAEQKFNYFVQKYELLQQFMSNFELIENLYGPGTTWFIRKTLAYQSPVVSGPGWLAIGDACGFTNPLYSPGINVGMSTSTWAAQLSHPIVEIGKSAPADAAESSIRKLLVPYDDYCKSLVPALEQMNRFNYVCYRDTRLGPQVACLWQFFAGIERYLSDVNIETFAHYAIKWVWGAMVPEYQQVAQKCIEHIETVPLDERLPDAMVDELLAFSNRIKSAAVAADDFSLRWDAILRSFDRSLNFVEGKTSRDIYTRQCSGCGAWLQLRPDWKKCHSCGLLGTEPQTAVTFDPPLTAEEEALLYAAWNTAPKYDPSKELKLPTPTRPAA
In the case of B1, the “halogenase activity relative to wild-type MalA” value (chlorination of compound 2) is “essentially identical to MalA”.

B2: E494Q: MalA halogenase variant, Glu494 substituted with glutamine (protein, UniProt L0E155 1-667, looked up, variant E494Q)
Flavin-dependent halogenase …: MAPTPKYTFTERAAAGNLSDAEILNSNNPTGSELPDESDVVVGGAGIHGLIYALHASKYKPNNLKISVIEKNTRPGYKIGESTLPIFYTWCKLHGISAAYLLRLFGLKDGLCFYFLDRENQGQYTDFCSVGAPGLVLASLQIERPMSELLFTILAQRNGVNVYHGREVDFKSTVVQGGGQGNKIAVSRGKYDSTPKTIDSALFVDATGRFRQFCSKKAPRHRFDGWNCNAFWGYFTAPKDESKIPFDLYEGDHTNHLCFPEGWVWVIRLPSWEGSLIANLMDMVTYILECADAGVPGDELPSSEELARMFGLKFQWVTSIGFAVRNDVKYPEDLSAYGTREAEQKFNYFVQKYELLQQFMSNFELIENLYGPGTTWFIRKTLAYQSPVVSGPGWLAIGDACGFTNPLYSPGINVGMSTSTWAAQLSHRIVEIGKSAPADAAESSIRKLLVPYDDYCKSLVPALEQMNRFNYVCYRDTRLGPQVACLWQFFAGIQRYLSDVNIETFAHYAIKWVWGAMVPEYQQVAQKCIEHIETVPLDERLPDAMVDELLAFSNRIKSAAVAADDFSLRWDAILRSFDRSLNFVEGKTSRDIYTRQCSGCGAWLQLRPDWKKCHSCGLLGTEPQTAVTFDPPLTAEEEALLYAAWNTAPKYDPSKELKLPTPTRPAA
Consider B2, for which, for the setting “chlorination of compound 2”, the “halogenase activity relative to wild-type MalA” value is on record as “inactivated”.

B3: MalA W263A: MalA flavin-dependent halogenase variant with W263A substitution (protein, UniProt L0E155 1-667, looked up, variant W263A)
Flavin-dependent halogenase …: MAPTPKYTFTERAAAGNLSDAEILNSNNPTGSELPDESDVVVGGAGIHGLIYALHASKYKPNNLKISVIEKNTRPGYKIGESTLPIFYTWCKLHGISAAYLLRLFGLKDGLCFYFLDRENQGQYTDFCSVGAPGLVLASLQIERPMSELLFTILAQRNGVNVYHGREVDFKSTVVQGGGQGNKIAVSRGKYDSTPKTIDSALFVDATGRFRQFCSKKAPRHRFDGWNCNAFWGYFTAPKDESKIPFDLYEGDHTNHLCFPEGAVWVIRLPSWEGSLIANLMDMVTYILECADAGVPGDELPSSEELARMFGLKFQWVTSIGFAVRNDVKYPEDLSAYGTREAEQKFNYFVQKYELLQQFMSNFELIENLYGPGTTWFIRKTLAYQSPVVSGPGWLAIGDACGFTNPLYSPGINVGMSTSTWAAQLSHRIVEIGKSAPADAAESSIRKLLVPYDDYCKSLVPALEQMNRFNYVCYRDTRLGPQVACLWQFFAGIERYLSDVNIETFAHYAIKWVWGAMVPEYQQVAQKCIEHIETVPLDERLPDAMVDELLAFSNRIKSAAVAADDFSLRWDAILRSFDRSLNFVEGKTSRDIYTRQCSGCGAWLQLRPDWKKCHSCGLLGTEPQTAVTFDPPLTAEEEALLYAAWNTAPKYDPSKELKLPTPTRPAA
Take B3: for the setting “chlorination of compound 2”, the “production of compound 1 relative to wild-type MalA” value was found to be 5%, the “production of compound 3 relative to wild-type MalA” value stood at 50% and the “production of compound 4 relative to wild-type MalA” value amounted to 60%.

B4: E494D: MalA halogenase variant, Glu494 substituted with aspartate (protein, listed as Malbranchea graminicola)
chain: MAPTPKYTFTERAAAGNLSDAEILNSNNPTGSELPDESDVVVGGAGIHGLIYALHASKYKPNNLKISVIEKNTRPGYKIGESTLPIFYTWCKLHGISAAYLLRLFGLKDGLCFYFLDRENQGQYTDFCSVGAPGLVLASLQIERPMSELLFTILAQRNGVNVYHGREVDFKSTVVQGGGQGNKIAVSRGKYDSTPKTIDSALFVDATGRFRQFCSKKAPRHRFDGWNCNAFWGYFTAPKDESKIPFDLYEGDHTNHLCFPEGWVWVIRLPSWEGSPIANLMDMVTYILECADAGVPGDELPSSEELARMFGLKFQWVTSIGFAVRNDVKYPEDLSAYGTREAEQKFNYFVQKYELLQQFMSNFELIENLYGPGTTWFIRKTLAYQSPVVSGPGWLAIGDACGFTNPLYSPGINVGMSTSTWAAQLSHPIVEIGKSAPADAAESSIRKLLVPYDDYCKSLVPALEQMNRFNYVCYRDTRLGPQVACLWQFFAGIDRYLSDVNIETFAHYAIKWVWGAMVPEYQQVAQKCIEHIETVPLDERLPDAMVDELLAFSNRIKSAAVAADDFSLRWDAILRSFDRSLNFVEGKTSRDIYTRQCSGCGAWLQLRPDWKKCHSCGLLGTEPQTAVTFDPPLTAEEEALLYAAWNTAPKYDPSKELKLPTPTRPAA
modifications: Wild-type MalA' protein
notes: MalA halogenase variant, Glu494 substituted with aspartate
Take B4: the “halogenase activity relative to wild-type MalA” value (chlorination of compound 2) is reported as “slight activity”.

B5: MalA W265A: MalA flavin-dependent halogenase variant with W265A substitution (protein, UniProt L0E155 1-667, looked up, variant W265A)
Flavin-dependent halogenase …: MAPTPKYTFTERAAAGNLSDAEILNSNNPTGSELPDESDVVVGGAGIHGLIYALHASKYKPNNLKISVIEKNTRPGYKIGESTLPIFYTWCKLHGISAAYLLRLFGLKDGLCFYFLDRENQGQYTDFCSVGAPGLVLASLQIERPMSELLFTILAQRNGVNVYHGREVDFKSTVVQGGGQGNKIAVSRGKYDSTPKTIDSALFVDATGRFRQFCSKKAPRHRFDGWNCNAFWGYFTAPKDESKIPFDLYEGDHTNHLCFPEGWVAVIRLPSWEGSLIANLMDMVTYILECADAGVPGDELPSSEELARMFGLKFQWVTSIGFAVRNDVKYPEDLSAYGTREAEQKFNYFVQKYELLQQFMSNFELIENLYGPGTTWFIRKTLAYQSPVVSGPGWLAIGDACGFTNPLYSPGINVGMSTSTWAAQLSHRIVEIGKSAPADAAESSIRKLLVPYDDYCKSLVPALEQMNRFNYVCYRDTRLGPQVACLWQFFAGIERYLSDVNIETFAHYAIKWVWGAMVPEYQQVAQKCIEHIETVPLDERLPDAMVDELLAFSNRIKSAAVAADDFSLRWDAILRSFDRSLNFVEGKTSRDIYTRQCSGCGAWLQLRPDWKKCHSCGLLGTEPQTAVTFDPPLTAEEEALLYAAWNTAPKYDPSKELKLPTPTRPAA
For the molecule B5, where the note is “chlorination of compound 2”, the “halogenase activity relative to wild-type MalA” value was “drastic decrease in activity”.

B6: E494A: MalA halogenase variant, Glu494 substituted with alanine (protein, UniProt L0E155 1-667, looked up, variant E494A)
Flavin-dependent halogenase …: MAPTPKYTFTERAAAGNLSDAEILNSNNPTGSELPDESDVVVGGAGIHGLIYALHASKYKPNNLKISVIEKNTRPGYKIGESTLPIFYTWCKLHGISAAYLLRLFGLKDGLCFYFLDRENQGQYTDFCSVGAPGLVLASLQIERPMSELLFTILAQRNGVNVYHGREVDFKSTVVQGGGQGNKIAVSRGKYDSTPKTIDSALFVDATGRFRQFCSKKAPRHRFDGWNCNAFWGYFTAPKDESKIPFDLYEGDHTNHLCFPEGWVWVIRLPSWEGSLIANLMDMVTYILECADAGVPGDELPSSEELARMFGLKFQWVTSIGFAVRNDVKYPEDLSAYGTREAEQKFNYFVQKYELLQQFMSNFELIENLYGPGTTWFIRKTLAYQSPVVSGPGWLAIGDACGFTNPLYSPGINVGMSTSTWAAQLSHRIVEIGKSAPADAAESSIRKLLVPYDDYCKSLVPALEQMNRFNYVCYRDTRLGPQVACLWQFFAGIARYLSDVNIETFAHYAIKWVWGAMVPEYQQVAQKCIEHIETVPLDERLPDAMVDELLAFSNRIKSAAVAADDFSLRWDAILRSFDRSLNFVEGKTSRDIYTRQCSGCGAWLQLRPDWKKCHSCGLLGTEPQTAVTFDPPLTAEEEALLYAAWNTAPKYDPSKELKLPTPTRPAA
For the molecule B6, the “halogenase activity relative to wild-type MalA” value (chlorination of compound 2) was “inactivated”.

B7: MalA H253A: MalA halogenase variant, His253 substituted with alanine (protein, UniProt L0E155 1-667, looked up, variant H253A)
Flavin-dependent halogenase …: MAPTPKYTFTERAAAGNLSDAEILNSNNPTGSELPDESDVVVGGAGIHGLIYALHASKYKPNNLKISVIEKNTRPGYKIGESTLPIFYTWCKLHGISAAYLLRLFGLKDGLCFYFLDRENQGQYTDFCSVGAPGLVLASLQIERPMSELLFTILAQRNGVNVYHGREVDFKSTVVQGGGQGNKIAVSRGKYDSTPKTIDSALFVDATGRFRQFCSKKAPRHRFDGWNCNAFWGYFTAPKDESKIPFDLYEGDATNHLCFPEGWVWVIRLPSWEGSLIANLMDMVTYILECADAGVPGDELPSSEELARMFGLKFQWVTSIGFAVRNDVKYPEDLSAYGTREAEQKFNYFVQKYELLQQFMSNFELIENLYGPGTTWFIRKTLAYQSPVVSGPGWLAIGDACGFTNPLYSPGINVGMSTSTWAAQLSHRIVEIGKSAPADAAESSIRKLLVPYDDYCKSLVPALEQMNRFNYVCYRDTRLGPQVACLWQFFAGIERYLSDVNIETFAHYAIKWVWGAMVPEYQQVAQKCIEHIETVPLDERLPDAMVDELLAFSNRIKSAAVAADDFSLRWDAILRSFDRSLNFVEGKTSRDIYTRQCSGCGAWLQLRPDWKKCHSCGLLGTEPQTAVTFDPPLTAEEEALLYAAWNTAPKYDPSKELKLPTPTRPAA
Regarding B7, the “site-selectivity profile of bromination” value (bromination of compound 2) is “same product profile as the wild-type MalA”. In addition, the site-selectivity of chlorination entry (chlorination of compound 2, C8 versus C9) is recorded as “selective for producing the C9-chlorinated compound 3”.
